According to patent US20200247855A1, “THERAPY AND DIAGNOSTICS” (OXFORD UNIVERSITY INNOVATION LIMITED, priority 2017, published 2020):
Like-named read-outs stand apart in the source and are kept apart here.

T1: CCL5_HUMAN (Homo sapiens, UniProt P13501)
T1 sequence (P13501 24-91): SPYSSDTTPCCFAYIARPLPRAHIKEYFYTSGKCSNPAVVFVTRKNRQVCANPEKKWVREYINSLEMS

T2: CCL22_HUMAN (Homo sapiens, UniProt O00626)
T2 sequence (O00626 25-93): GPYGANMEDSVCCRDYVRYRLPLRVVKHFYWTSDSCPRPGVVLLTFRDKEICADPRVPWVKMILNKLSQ

T3: CCL19_HUMAN (Homo sapiens, UniProt Q99731)
T3 sequence (Q99731 22-98): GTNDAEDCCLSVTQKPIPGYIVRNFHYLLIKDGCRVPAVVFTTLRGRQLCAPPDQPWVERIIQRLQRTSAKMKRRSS

T4: CCL27_HUMAN (Homo sapiens, UniProt Q9Y4X3)
T4 sequence (Q9Y4X3 25-112): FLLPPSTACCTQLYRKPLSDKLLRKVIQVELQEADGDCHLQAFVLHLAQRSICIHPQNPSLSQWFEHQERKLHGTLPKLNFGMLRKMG

B1: EVASIN4: previously described tick CKBP evasin 4, from Rhipicephalus sanguineus (protein, listed as Rhipicephalus sanguineus)
chain: EVPQMTSSSAPDLEEEDDYTAYAPLTCYFTNSTLGLLAPPNCSVLCNSTTTWFNETSPNNASCLLTVDFLTQDAILQENQPYNCSVGHCDNGTCAGPPRHAQCW
B2: P1243_AMBAM: tick CKBP, Amblyomma americanum; AAM-02 stated identical (protein, listed as Amblyomma americanum)
chain: RNHTEDNSTEYYDYEEARCACPARHLNNTNGTVLKLLGCHYFCNGTLCTAPDGYPCYNLTAQQVRTLTTYPNTSCAVGVCMKGTCVKNGTMEQCFKTP

Legend:
CCL5_HUMAN [1] = biological target: T1, CCL5_HUMAN; settings: read-out: Kd, CCL5_HUMAN, previously described evasins; data obtained from publications [20-22,32]; cited from earlier work
CCL22_HUMAN = biological target: T2, CCL22_HUMAN; settings: read-out: Kd, CCL22_HUMAN, previously described evasins; data obtained from publications [20-22,32]; cited from earlier work
CCL11_HUMAN = CCL11_HUMAN (Homo sapiens, UniProt P51671); test: Biolayer interferometry (BLI) binding
In short: (§1)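 Kd (M) came from curve fits to association, equilibrium and dissociation phases. Purified His-tagged tick evasin was immobilised on Ni-NTA biosensors; chemokines binding in a 300 nM cross-screen were then tested at a range of concentrations.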

CCL13_HUMAN = CCL13_HUMAN (Homo sapiens, UniProt Q99616); test: Biolayer interferometry (BLI) binding
In short: as §1

CCL19_HUMAN = biological target: T3, CCL19_HUMAN; test: Biolayer interferometry (BLI) binding
In short: as §1

CCL27_HUMAN = biological target: T4, CCL27_HUMAN; test: Biolayer interferometry (BLI) binding
In short: as §1

CCL5_HUMAN [2] = biological target: T1, CCL5_HUMAN; test: Biolayer interferometry (BLI) binding
In short: as §1

Sequence of CCL11_HUMAN (P51671 24-97): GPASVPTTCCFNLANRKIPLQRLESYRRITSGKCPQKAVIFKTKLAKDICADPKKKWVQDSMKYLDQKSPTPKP
Sequence of CCL13_HUMAN (Q99616 17-98): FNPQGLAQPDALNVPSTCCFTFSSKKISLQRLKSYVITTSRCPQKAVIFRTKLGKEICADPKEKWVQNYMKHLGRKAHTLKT

| Molecule | Kd (CCL5_HUMAN [1]) | Kd (CCL22_HUMAN) | Kd (CCL11_HUMAN) | Kd (CCL13_HUMAN) | Kd (CCL19_HUMAN) | Kd (CCL27_HUMAN) | Kd (CCL5_HUMAN [2]) |
| --- | --- | --- | --- | --- | --- | --- | --- |
| B1 | 0.09 nM | 0.43 nM |  |  |  |  |  |
| B2 |  |  | 6.03 nM | 0.788 nM | 0.592 nM | 15.1 nM | 1.74 nM |
